Measurements reported in patent publication US20190233526A1.

Target: human C-C motif chemokine receptor 4 (CCR4) on tumor cell lines (human) (UniProt P51679)
Experiment: cell-based or functional assay

UniProt P51679, sequence (P51679 whole entry): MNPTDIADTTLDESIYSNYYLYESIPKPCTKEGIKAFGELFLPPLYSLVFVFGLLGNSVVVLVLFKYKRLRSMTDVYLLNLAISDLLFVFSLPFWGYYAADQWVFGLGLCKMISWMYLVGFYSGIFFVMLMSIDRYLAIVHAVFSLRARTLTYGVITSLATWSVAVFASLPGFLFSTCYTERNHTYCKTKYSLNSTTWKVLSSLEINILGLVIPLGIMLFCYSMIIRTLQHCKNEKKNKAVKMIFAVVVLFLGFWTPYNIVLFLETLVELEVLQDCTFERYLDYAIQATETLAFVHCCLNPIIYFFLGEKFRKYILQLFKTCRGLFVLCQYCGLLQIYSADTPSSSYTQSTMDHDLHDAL

GM-CSF fold-induction, CAR T cells co-cultured with irradiated ATL55T cells for 24 hours: 5 fold | IFN-gamma fold-induction, CAR T cells co-cultured with irradiated ATL55T cells for 24 hours: 2 fold | IL-4 fold-induction, CAR T cells co-cultured with irradiated ATL55T cells for 24 hours: 9 fold | IL-5 fold-induction, CAR T cells co-cultured with irradiated ATL55T cells for 24 hours: 4 fold | IL-8 fold-induction, CAR T cells co-cultured with irradiated ATL55T cells for 24 hours: 4 fold | IL-13 fold-induction, CAR T cells co-cultured with irradiated ATL55T cells for 24 hours: 3 fold | MDC fold-induction, CAR T cells co-cultured with irradiated ATL55T cells for 24 hours: 2 fold | TNF-alpha fold-induction, CAR T cells co-cultured with irradiated ATL55T cells for 24 hours: 8 fold | TNF-beta fold-induction, CAR T cells co-cultured with irradiated ATL55T cells for 24 hours: 5 fold | [3H]thymidine incorporation of CAR T cells co-cultured with irradiated CCR4-bearing target cells: > 3 fold | increase of MIP-1α level on co-culture with target cells: 36% | increase of MP-10 (so in the source) level on co-culture with target cells: 25%
Substance: CCR4 CAR (chimeric antigen receptor with mAb2-3 scFv, CD8 hinge and transmembrane domain, 4-1BB signaling domain and CD3 zeta signaling domain), expressed on transduced human CD3+ T cells
